The test has as its target BG505-gp120 10MUT-KO (HIV-1, strain BG505). Put plainly: SPR, monomeric gp120. A general note: In SPR one partner is held on a chip, and binding of the other changes the refractive index at the surface.

The values below come from patent publication US20190085033A1 (published 2019).

B1: PGT121 (antibody, V domains shown)
VH: QMQLQESGPGLVKPSETLSLTCSVSGASISDSYWSWIRRSPGKGLEWIGYVHKSGDTNYSPSLKSRVNLSLDTSKNQVSLSLVAATAADSGKYYCARTLHGRRIYGIVAFNEWFTYFYMDVWGNGTQVTVSS
VL: SDISVAPGETARISCGEKSLGSRAVQWYQHRAGQAPSLIIYNNQDRPSGIPERFSGSPDSPFGTTATLTITSVEAGDEADYYCHIWDSRVPTKWVFGGGTTLTVL
notes: also called mature PGT121
By Kd is commonly meant the concentration at which binding is half-saturated. Molecule B1 registered a Kd of 435 nM.
